Test results: patent US7344852 (Takeda / Millennium, dated 2008)

Molecular target: the molecule itself
Assay: X-ray crystal structure of apo DPPIV (self-association, homodimer)
Experimental: The structure of DPPIV was solved by a combination of heavy-atom derivatives and Seleno-Methionine (Se-Met) phasing in conjunction with non-crystallographic averaging. Heavy atom derivatives were obtained by soaking native DPPIV crystals in heavy atom solutions made using the crystallization solution. The concentration of heavy atom derivative and time of soaking varied between 0.5 mM to 10 mM and 1 to 15 days, respectively. An extensive array of heavy atom derivatives were individually soaked into DPPIV crystals and analyzed. Two heavy atom derivatives were used to determine the phases: di-m-iodobis (ethylene-diamine)-di-platinum (II) nitrate (PIP) and ethyl mercuric thiosalicylic acid sodium salt (EMTS). Data from crystals of apo DPPIV, Se-Met-DPPIV, PIP-DPPIV and EMTS-DPPIV were collected from cryocooled crystals (100K) at the Stanford Synchrotron Radiation Laboratory (SSRL) beam lines 9-1, 9-2 and 11-1 and the Advanced Light Source (ALS) beam lines 5.0.2 and 5.0.3 both using an ADSC Quantum CCD detector. […] Data were collected and integrated to 2.3 Å with MOSFLM (or HKL2000) and scaled with SCALA (or Scalepack) (CCP4 Study Weekend, Eds. Sawyer, L., Isaacs, N. & Bailey, S. 56-62, SERC Daresbury Laboratory, England, 1993).
Crystals were obtained after an extensive and broad screen of conditions, followed by optimization. […]

B1: recombinant human dipeptidyl peptidase IV (DPPIV), residues 39-766 of SEQ ID NO:1 with part of a gp67 signal sequence and a 6x-histidine tag (SEQ ID NO:3) (enzyme)
chain: ADPGGSHHHHHHSRKTYTLTDYLKNTYRLKLYSLRWISDHEYLYKQENNILVFNAEYGNSSVFLENSTFDEFGHSINDYSISPDGQFILLEYNYVKQWRHSYTASYDIYDLNKRQLITEERIPNNTQWVTWSPVGHKLAYVWNNDIYVKIEPNLPSYRITWTGKEDIIYNGITDWVYEEEVFSAYSALWWSPNGTFLAYAQFNDTEVPLIEYSFYSDESLQYPKTVRVPYPKAGAVNPTVKFFVVNTDSLSSVTNATSIQITAPASMLIGDHYLCDVTWATQERISLQWLRRIQNYSVMDICDYDESSGRWNCLVARQHIEMSTTGWVGRFRPSEPHFTLDGNSFYKIISNEEGYRHICYFQIDKKDCTFITKGTWEVIGIEALTSDYLYYISNEYKGMPGGRNLYKIQLSDYTKVTCLSCELNPERCQYYSVSFSKEAKYYQLRCSGPGLPLYTLHSSVNDKGLRVLEDNSALDKMLQNVQMPSKKLDFIILNETKFWYQMILPPHFDKSKKYPLLLDVYAGPCSQKADTVFRLNWATYLASTENIIVASFDGRGSGYQGDKIMHAINRRLGTFEVEDQIEAARQFSKMGFVDNKRIAIWGWSYGGYVTSMVLGSGSGVFKCGIAVAPVSRWEYYDSVYTERYMGLPTPEDNLDHYRNSTVMSRAENFKQVEYLLIHGTADDNVHFQQSAQISKALVDVGVDFQAMWYTDEDHGIASSTAHQHIYTHMSHFIKQCFSLP
modifications: glycosylated; four or five residues per chain carry covalently linked sugar molecules (NAG), positions not given
notes: Secreted from baculovirus-infected insect cells; crystallised as apo protein; The asymmetric unit holds four copies that form two dimers (A with B, C with D); also called DPP4; CD26
B1: binds.
